Data set [1] concerns Flag-tagged rtPDE3B containing its full ORF.
Data set [2] concerns Flag-tagged rtPDE3B-137 (full ORF) S421A.
The subject of data set [3] is Flag-tagged rtPDE3B-137 (full ORF) S421D.

On to PK-A (cAMP-dependent protein kinase), for which the “stimulation of cGMP hydrolytic activity by PK-A (0.03 µM cGMP, with or without PK-A and ATP)” value in data set [1], in data set [2] and in data set [3] was “caused a much greater stimulation of activity in S421D than in S421A or the wild-type rtPDE3B” each time.
